In assay [1] the target is cipko_arath CIPK24 (UniProt Q9LDI3).
For assay [2] the target is unchanged. This is another data set of the same source.

Sequence of cipko_arath CIPK24 (Q9LDI3 whole entry): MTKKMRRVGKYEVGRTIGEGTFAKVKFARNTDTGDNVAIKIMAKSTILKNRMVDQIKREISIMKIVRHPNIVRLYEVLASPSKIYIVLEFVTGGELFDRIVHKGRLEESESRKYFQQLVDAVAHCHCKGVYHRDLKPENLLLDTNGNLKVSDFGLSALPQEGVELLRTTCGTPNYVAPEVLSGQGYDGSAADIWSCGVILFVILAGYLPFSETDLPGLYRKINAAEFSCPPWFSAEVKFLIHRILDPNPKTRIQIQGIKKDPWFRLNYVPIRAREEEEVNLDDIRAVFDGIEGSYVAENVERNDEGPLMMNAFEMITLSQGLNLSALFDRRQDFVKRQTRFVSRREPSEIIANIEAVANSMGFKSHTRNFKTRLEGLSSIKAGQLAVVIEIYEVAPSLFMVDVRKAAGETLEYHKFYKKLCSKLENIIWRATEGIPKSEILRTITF
Sequence of Calcineurin B-like protein 10 (Arabidopsis thaliana (Mouse-ear cress)), Q7FRS8-2 S237A (Q7FRS8 other isoform, or with tags, fused parts or gaps S237A): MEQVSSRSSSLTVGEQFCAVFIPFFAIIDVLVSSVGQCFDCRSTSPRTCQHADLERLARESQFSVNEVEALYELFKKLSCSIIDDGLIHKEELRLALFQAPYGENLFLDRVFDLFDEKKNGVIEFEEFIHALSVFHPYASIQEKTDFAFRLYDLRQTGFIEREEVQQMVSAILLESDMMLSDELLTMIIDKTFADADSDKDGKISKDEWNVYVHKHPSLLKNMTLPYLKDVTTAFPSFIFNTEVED
Sequence of Calcineurin B-like protein 10 (Arabidopsis thaliana (Mouse-ear cress)), Q7FRS8-2 S237D (Q7FRS8 other isoform, or with tags, fused parts or gaps S237D): as the sequence (Q7FRS8 other isoform, or with tags, fused parts or gaps S237A) above

Regarding “Calcineurin B-like protein 10 (Arabidopsis thaliana (Mouse-ear cress)), Q7FRS8-2 S237A”, the “effect of a mutation on the interaction” value is reported as “decreasing interaction” in assay [1] and “disrupting interaction” in assay [2]. As to “Calcineurin B-like protein 10 (Arabidopsis thaliana (Mouse-ear cress)), Q7FRS8-2 S237D”, the “effect of a mutation on the interaction” value in assay [1] is listed as “increasing interaction”.
